Results reported in patent US20200061153A1 (BAYLOR COLLEGE OF MEDICINE, published 2020).

Legend:
[1] = target: T1, soluble recombinant human vimentin (srhVim), full length, expressed from pET30 in E. coli (human, UniProt P08670 2-466); test: ELISA, wells coated with PSGL-1/Fc 10 µg/mL, srhVim added at rising concentrations, detection with anti-His/HRP
T1 construct: also called full length vimentin; full-length Vimentin; not shown: His tag from pET30 (Ni2+ purification, anti-His detection)
Procedure: The observations in these experiments, in certain embodiments, are attributed to srhVim either affecting P-selectin, PSGL-1, or both. ELISA was performed by coating 96-well plates with either PSGL-1/Fc protein (10 μg/mL), P-selectin/Fc protein (10 μg/mL), or BSA (10 μg/mL) and adding various concentrations of srhVim to each well. Detection was through anti-His/HRP antibodies. Increasing amounts of srhVim bound to P-selectin/Fc protein and reached saturation at 20 μg/mL. There was no binding of srhVim to PSGL-1/Fc (FIG. 6B).

[2] = target: T2, recombinant human vimentin (rhVim), expressed from pQE-30 in E. coli M15 (human, UniProt P08670 2-466); test: ELISA, wells coated with PSGL-1/Fc 10 µg/mL in DPBS, blocked with 1% BSA, rhVim added at rising concentrations, detection with HRP-conjugated anti-polyhistidine antibody
T2 construct: also called pQE-30-hVim product; not shown: polyhistidine tag from pQE-30 (Ni2+ purification, anti-polyhistidine detection)
Procedure: rhVim binding assay—To determine which proteins to which rhVim binds, we performed enzyme linked immunosorbent assays (ELISA) as we described (Da, et al., 2014). Immunoplate wells were coated overnight at 4° C. with P-selectin/Fc or PSGL-1/Fc (10 μg/ml in DPBS). Wells were washed with DPBS and then blocked with 1% BSA for one hour. After blocking, rhVim was added in increasing concentrations and detected using a HRP-conjugated anti-polyhistidine antibody. Tetramethylbenzidine solution was used as the substrate and the reactions were stopped using 1 N sulfuric acid. All ELISA measurements were performed in duplicate and the data reported were averaged from two separate experiments performed.
The effect of rhVim blocking PMN adhesion to P-selectin could be attributed to rhVim either affecting P-selectin, PSGL-1, or both. Therefore, ELISAs were performed with wells coated either PSGL-1/Fc protein (10 μg/mL) or P-selectin/Fc protein (10 μg/mL) and incubated with increasing concentrations of rhVim to each well. Increasing amounts of rhVim bound to P-selectin/Fc protein and reached saturation at 20 μg/mL. There was no binding of rhVim to PSGL-1/Fc at any concentration (FIG. 15C).

T2 sequence (P08670 2-466): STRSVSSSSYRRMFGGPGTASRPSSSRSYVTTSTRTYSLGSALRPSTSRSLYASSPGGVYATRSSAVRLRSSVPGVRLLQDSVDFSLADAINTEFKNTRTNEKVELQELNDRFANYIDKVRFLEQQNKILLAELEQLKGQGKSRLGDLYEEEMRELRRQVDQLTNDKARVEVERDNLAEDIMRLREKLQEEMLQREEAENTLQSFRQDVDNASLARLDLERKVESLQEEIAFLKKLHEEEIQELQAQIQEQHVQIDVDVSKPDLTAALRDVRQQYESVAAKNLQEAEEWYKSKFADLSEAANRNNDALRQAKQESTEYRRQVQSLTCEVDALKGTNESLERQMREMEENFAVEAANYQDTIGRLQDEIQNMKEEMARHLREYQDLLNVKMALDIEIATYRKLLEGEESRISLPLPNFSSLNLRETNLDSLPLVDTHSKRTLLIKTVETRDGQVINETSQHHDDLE
T1 sequence (P08670 2-466): as above

binding result [1]: no binding (tested: 40 µg/mL)
binding result [2]: no binding (tested: 40 µg/mL)
B1: PSGL-1/Fc protein (Fc fusion, UniProt Q14242 42-295, looked up)
chain: QATEYEYLDYDFLPETEPPEMLRNSTDTTPLTGPGTPESTTVEPAARRSTGLDAGGAVTELTTELANMGNLSTDSAAMEIQTTQPAATEAQTTQPVPTEAQTTPLAATEAQTTRLTATEAQTTPLAATEAQTTPPAATEAQTTQPTGLEAQTTAPAAMEAQTTAPAAMEAQTTPPAAMEAQTTQTTAMEAQTTAPEATEAQTTQPTATEAQTTPLAAMEALSTEPSATEALSMEPTTKRGLFIPFSVSSVTHKG
notes: Bought from R & D Systems; the species is not clearly stated; not shown: Fc part
